# Measurements from patent publication US20180360749A1, “METHODS AND COMPOSITIONS FOR DELIVERY OF MEDICAMENTS TO THE LUNGS” (Paka Pulmonary Pharmaceuticals, priority 2007, published 2018).
# Columns and labels:
# HNE [1] = target: T1, HNE (Homo sapiens, UniProt P08246); assay: Bronchoalveolar lavage of the lungs following HNE exposure (lung blood cell level); assay type: in vivo; settings: mice
# T1 sequence (P08246 30-267): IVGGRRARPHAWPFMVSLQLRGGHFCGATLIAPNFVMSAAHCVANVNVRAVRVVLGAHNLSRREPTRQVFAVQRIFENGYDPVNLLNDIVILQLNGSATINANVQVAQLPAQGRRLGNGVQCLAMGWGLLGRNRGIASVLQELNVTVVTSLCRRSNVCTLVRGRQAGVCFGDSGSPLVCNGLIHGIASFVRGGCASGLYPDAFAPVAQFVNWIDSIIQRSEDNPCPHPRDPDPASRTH
# Experimental: A total of 14 animals were used in this study. Anesthetized mice received 0.1 ml of solution delivered by a blunt tip catheter to the opening of the trachea and the animals allowed to aspirate the solution into their lungs. All animals were exposed to the treatment for 2 hours and re-anesthetized. Bronchoalveolar lavage of the lungs was performed as described below. […] Target 2 (a potent HNE inhibitor developed by Zeneca in the early 1990s) when given with the HNE, reduced the average blood level in the lungs by 34% to 0.035 grams. Target C (the Zeneca molecule covalently attached to the N-terminus of the first 25 residues of the human surfactant B peptide) when given with the HNE reduced the average blood level in the lungs by 87% to 0.007 grams.
# A set of animals was used to determine the optimal concentration of HNE for the study. […] The amount of HNE was reduced to 40 micrograms to maintain a maximal detrimental but survivable effect. The animals exposed to 40 micrograms of HNE were able to survive long enough to perform the complete study. All animals remaining in the complete study were exposed to 40 micrograms of HNE.
# Target 2 (the Zeneca molecule) was given in a 70-fold molar excess relative to HNE. In the kinetic studies, Target 2 has 2 nM affinity. […] Accordingly, the Target C was given to the animals in a 100 fold molar excess relative to HNE in these studies.
# Bronchio-Alveolar lavage (BAL) is performed by 1) anesthetizing the animals; 2) performing a tracheotomy on the animals and cutting open the chest and spreading the ribs to enable full lung expansion; 3) pressurizing lml of PBS buffer solution into the lungs through the tracheotomy catheter; 4) sucking the solution out of the lungs; 5) centrifuging the recovered solution to separate the red blood cell fraction from the liquid fraction; and 6) weighing the red blood cell fraction.
# HNE [2] = target: T1, HNE; assay: Kinetic studies of affinity for HNE; assay type: biochemical
# [3] = given with 40 micrograms HNE via trachea, 2 hours exposure, weight of BAL red blood cell fraction, Target 2 70-fold, Target C 100 fold molar excess relative to HNE
substance,measurement,setting,value
Target C: the Zeneca molecule covalently attached to the N-terminus of the first 25 residues of the human surfactant B peptide (FPIPLPYCWLCRALIKRIQAMIPKG),"Lung Blood Cell Level Measurements, Mouse group 1",HNE [1]; [3],0 g
same,"Lung Blood Cell Level Measurements, Mouse group 2",HNE [1]; [3],0.007 g
same,"Lung Blood Cell Level Measurements, Mouse group 3",HNE [1]; [3],0.014 g
same,"Lung Blood Cell Level Measurements, Group mean","HNE [1]; given with 40 micrograms HNE, 2 hours exposure, mean of the mouse groups",0.007 g
same,average blood level in the lungs (lung blood cell level by weight),"HNE [1]; given with the HNE, 2 hours exposure",0.007 grams
same,reduction of the average blood level in the lungs,"HNE [1]; given with the HNE, relative to animals given HNE (0.053 grams)",87%
same,Ki,HNE [2],~200 nM
same,loss of potency as compared to Target 2,HNE [2],approximately two orders of magnitude
